# According to patent US9352039B2, “Method of reducing the number of EMT and MET type breast cancer stem cells” (The Regents of the University of Michigan, priority 2012, dated 2016):
# B1: mir-221: microRNA (SEQ ID NO:3), forced over-expression in mammary cells (nucleic acid, listed as Homo sapiens)
# chain: TGAACATCCAGGTCTGGGGCATGAACCTGGCATACAATGTAGATTTCTGTGTTCGTTAGGCAACAGCTACATTGTCTGCTGGGTTTCAGGCTACCTGGAAACATGTTCTC
# B2: mir-100: microRNA (SEQ ID NO:2) over-expressed from a doxycycline-inducible pTRIPZ lentiviral vector tagged with RFP (nucleic acid, listed as Homo sapiens)
# chain: CCTGTTGCCACAAACCCGTAGATCCGAACTTGTGGTATTAGTCCGCACAAGCTTGTATCTATAGGTATGTGTCTGTTAGG
# B3: mir-93: microRNA (SEQ ID NO:1) over-expressed from a doxycycline-inducible pTRIPZ lentiviral vector tagged with RFP (nucleic acid, listed as Homo sapiens)
# chain: CTGGGGGCTCCAAAGTGCTGTTCGTGCAGGTAGTGTGATTACCCAACCTACTGCTGAGCTAGCACTTCCCGAGCCCCCGG
# Legend:
# Assay type in all cases: cell-based, human
# MCF-10A cells = assay: flow cytometry for EpCAM/CD49f, ALDH (Aldefluor) and CD24/CD44 after inducible lentiviral microRNA over-expression; details: for ALDH-positive CSC population / CD24−CD44+ population: expression of the microRNA in MCF10A cells and several cancer cell lines
# Text: Cells were transduced with pTRIPZ-microRNA-RFP lentiviruses with inducible systems and selected with puromycin, and microRNAs were induced with or without (CONTROL) Doxycycline and analyzed for RFP, EpCAM and CD49f.
# (§1) Furthermore, forced over-expression of mir-100 or mir-221 increased the proportion of EpCAM^−CD49f^+ cells in non-transformed MCF-10A cells as well as primary normal human mammary cells isolated from reduction mammoplasty specimens. […] This was followed by an EMT/MET transition in the Aldefluor-positive CSC population. Since TGFβ is a major regulator of EMT, abrogation of this signaling pathway may facilitate MET.
# Of interest, it has been recently reported that the mir106b-25 cluster including mir-93 is induced in the early stages of nuclear reprogramming of fibroblasts into IPS cells. This is accompanied by an EMT to MET conversion in these cells which is obligatory for reprogramming to occur.
# (§2) A TET on/off inducible system was established to over-express microRNAs in a lentiviral vector tagged with RFP. Utilizing this system, it was shown that forced over-expression of mir-93 increases the proportion of EpCAM^+CD49f^+ and ALDH^+ cells (FIG. 5). […] Furthermore, forced over-expression of mir-100 increased the proportion of EpCAM^−CD49f^+ cells (FIG. 5).
# SUM159 cells [1] = assay: in vitro matrigel invasion assay; details: microRNA induced with Doxycycline vs control; serum as attractant
# Procedure: The invasive capability of pTRIPZ-mir-93-RFP cells or pTRIPZ-mir-100-RFP cells with or without (CONTROL) Doxycycline was assessed by matrigel invasion assay. […] were plated in Matrigel and serum was utilized as the attractant.
# as §2
# Assays were done in triplicate in invasion chambers pre-coated with reduced growth factor matrix from BD Biosciences. Cells were added to the upper chamber in […] of serum-free medium. For the invasion assay, 20,000 cancer cells were seeded on the coated chamber, and the lower chamber was filled with […] of medium (Cambrex) with FBS. After 37 hours of incubation, the cells on the underside of the upper chambers were stained with the blue stain in the Cell Invasion Assay Kit (Chemicon; cat. #ECM550) and counted using light microscopy.
# TGFβR2 = assay: TGFβ signaling after mir-93 induction; details: by targeting TGFβR2; effect seen within twelve hours of induction
# Text: as §1
# SUM159 cells [2] = assay: induction of MET and EMT/MET marker expression in the ALDH-positive CSC population after mir-93 induction; details: induction of the microRNA in EMT SUM159 cells
# Text: as §1, §2
# [3] = forced over-expression of the microRNA, MCF-10A and primary normal human mammary cells
# [4] = forced over-expression of the microRNA
molecule,measurement,setting,value
B1,ALDH-positive CSC population,MCF-10A cells,decrease
same,CD24−CD44+ population,MCF-10A cells,increase
same,proportion of EpCAM−CD49f+ cells,MCF-10A cells; [3],increased
B2,ALDH-positive CSC population,MCF-10A cells,decrease
same,CD24−CD44+ population,MCF-10A cells,increase
same,ALDH+ CSC population,MCF-10A cells; [4],decrease
same,proportion of CD24−CD44+ CSC cells,MCF-10A cells; [4],increase
same,proportion of EpCAM−CD49f+ cells,MCF-10A cells; [3],increased
same,cell invasion,SUM159 cells [1],increased cell invasion
B3,TGFβ signaling,TGFβR2,inhibits TGFβ signaling
same,proportion of EpCAM+CD49f+ and ALDH+ cells,"MCF-10A cells; forced over-expression of the microRNA (TET inducible lentiviral vector), MCF-10A and primary normal human mammary cells",increases
same,MET in the ALDH-positive CSC population,SUM159 cells [2],induces an MET
same,expression of E-Cadherin and Claudin,SUM159 cells [2]; ALDH-positive CSC population,increased expression
same,"expression of mesenchymal genes (vimentin, N-Cadherin, Twist)",SUM159 cells [2]; ALDH-positive CSC population,down-regulation
same,cell invasion,SUM159 cells [1],decreased cell invasion
